Consider 39 sequences from the supplement of paper PMC7877785.

± gives the uncertainty stated by the source.

This series is described as follows: self-splicing fitness, log relative to wild type (ln ratio); higher = more splicing; Tetrahymena group I intron in knt gene, E. coli kanamycin selection, DiMSum; sequences stand for … in CUCUCU…GGAGGGAAAAGUUAUCAGGCAUGCACCUGGUAGCUAGUCUUUAAACCAAUAGAUUGCAUCGGUUUAAAAGGCAAGACCGUCAAAUUGCGGGAAAGGGGUCAACAGCCGUUCAGUACCAAGUCUCAGGGGAAACUUUGAGAUGGCCUUGCAAAGGGUAUGGUAAUAAGCUGACGGACAUGGUCCUAACCACGCAGCCAAGUCCUAAGUCAACAGAUCUUCUGUUGAUAUGGAUGCAGUUCACAGACUAAAUGUCGGUCGGGGAAGAUGUAUUCUUCUCAUAAGAUAUAGUCGGACCUCUCCUUAAUGGGAGCUAGCGGAUGAAGUGAUGCAACACUGGAGCCGCUGGGAACUAAUUUGUAUGCGAAAGUAUAUUGAUUAGUUUUGGAGUACUCGUGGUCG
In outline:
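Pooled colonies went to amplicon sequencing on an Illumina HiSeq 2500 after six replicate transformations. The plates were LB agar with 100 μg/mL carbenicillin, 50 μM IPTG and 0.2% rhamnose, with or without 25 μg/mL kanamycin, incubated overnight at 37°C or 30°C. The E. coli BL21(DE3) library had all eight P1ex-region intron nucleotides randomised, the intron placed in the knt kanamycin-resistance gene on pET-22b(+). DiMSum fitness is the error-weighted combination of replicate fold changes, kanamycin against none, normalised to wild type.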

As to GCCCAGCAAUAUUACGUAGU, the “self-splicing fitness (ln)” value is -0.118 ± 0.051 (30 °C) and -0.0932 ± 0.066 (37 °C).

Take GUAUAGCAAUAUUACGGUGA: the “self-splicing fitness (ln)” value (30 °C) was -2.53 ± 0.25 and the “self-splicing fitness (ln)” value (37 °C) was -0.645 ± 0.18. The corresponding values for GCCGAGCAAUAUUACGGGCA are -2.24 ± 0.25 and -0.776 ± 0.17.

Take AACCAGCAAUAUUACGAGGU: the “self-splicing fitness (ln)” value is -3.14 ± 0.16 (30 °C) and -2.53 ± 0.16 (37 °C). The corresponding values for UGAAAGCAAUAUUACGUGUC are -0.712 ± 0.15 and -2.32 ± 0.21. The corresponding values for AAAGAGCAAUAUUACGAGGG are -3.04 ± 0.27 and -2.34 ± 0.39. For the sequence CUACAGCAAUAUUACGCUAC, the “self-splicing fitness (ln)” value (30 °C) was -3.78 ± 0.22 and the “self-splicing fitness (ln)” value (37 °C) is -2.25 ± 0.24. CAACAGCAAUAUUACGCUCG: the “self-splicing fitness (ln)” value reads like this: (30 °C) -0.822 ± 0.072; (37 °C) -0.727 ± 0.1.

Turning to AUACAGCAAUAUUACGACGU, the “self-splicing fitness (ln)” value by setting is: (30 °C) -0.374 ± 0.068; (37 °C) 0.174 ± 0.084.

For GCGAAGCAAUAUUACGAAGA, the “self-splicing fitness (ln)” value by setting is: (30 °C) -2.14 ± 0.22; (37 °C) -0.931 ± 0.21.

CAAUAGCAAUAUUACGGCGG: the “self-splicing fitness (ln)” value is, setting by setting: (30 °C) 0.429 ± 0.11; (37 °C) -0.0335 ± 0.14. The matching figures for AUCUAGCAAUAUUACGCGGG: -3.32 ± 0.26 and -2.12 ± 0.23.

In the case of UGGGAGCAAUAUUACGCUUC, where the note is “30 °C”, the “self-splicing fitness (ln)” value was -1.91 ± 0.36.

GUACAGCAAUAUUACGUCAC: where the note is “37 °C”, the “self-splicing fitness (ln)” value is -2.14 ± 0.31.

On to CUAGAGCAAUAUUACGGUAC, for which the “self-splicing fitness (ln)” value (30 °C) is -3.01 ± 0.33. Take GUUUAGCAAUAUUACGGGCG: the “self-splicing fitness (ln)” value was -0.544 ± 0.2 (30 °C) and -1.38 ± 0.21 (37 °C). Turning to GCGCAGCAAUAUUACGAAGU, the “self-splicing fitness (ln)” value is -0.905 ± 0.13 (30 °C) and -0.493 ± 0.16 (37 °C).

With CUACAGCAAUAUUACGGACU, the “self-splicing fitness (ln)” value is -1.76 ± 0.17 (30 °C) and -1.75 ± 0.19 (37 °C). On to GAGAAGCAAUAUUACGAUGC, for which the “self-splicing fitness (ln)” value runs as follows: (30 °C) -1.06 ± 0.15; (37 °C) -0.435 ± 0.21.

Regarding AUGUAGCAAUAUUACGCGCU, the “self-splicing fitness (ln)” value is, setting by setting: (30 °C) -0.77 ± 0.14; (37 °C) -0.00271 ± 0.15. Consider AUAGAGCAAUAUUACGCUAU, for which the “self-splicing fitness (ln)” value reads like this: (30 °C) -2.49 ± 0.18; (37 °C) -2.34 ± 0.3.

Regarding CGUCAGCAAUAUUACGGGAU, the “self-splicing fitness (ln)” value was -4.7 ± 0.39 (30 °C) and -2.66 ± 0.2 (37 °C).

Consider UUGUAGCAAUAUUACGCCUU, for which the “self-splicing fitness (ln)” value is, setting by setting: (30 °C) -0.585 ± 0.17; (37 °C) 0.0387 ± 0.17. The corresponding values for AGCUAGCAAUAUUACGUAUC are -3.55 ± 0.18 and -3.09 ± 0.24.

For GGGAAGCAAUAUUACGGGGU, the “self-splicing fitness (ln)” value (37 °C) was -2.7 ± 0.34. For CAUAAGCAAUAUUACGUUCA, the “self-splicing fitness (ln)” value (30 °C) was -3.29 ± 0.13 and the “self-splicing fitness (ln)” value (37 °C) was -1.95 ± 0.13. With GUACAGCAAUAUUACGCAUC, the “self-splicing fitness (ln)” value was -3.74 ± 0.23 (30 °C) and -1.36 ± 0.19 (37 °C).

Consider GGUCAGCAAUAUUACGGGAA, for which the “self-splicing fitness (ln)” value reads like this: (30 °C) -1.5 ± 0.16; (37 °C) -0.702 ± 0.15. As to UCGAAGCAAUAUUACGGUCG, the “self-splicing fitness (ln)” value (30 °C) was -0.668 ± 0.079 and the “self-splicing fitness (ln)” value (37 °C) amounted to 0.0856 ± 0.11. As to GGAGAGCAAUAUUACGAAAU, where the note is “37 °C”, the “self-splicing fitness (ln)” value was -2.48 ± 0.48. Consider AAUUAGCAAUAUUACGUCGU, for which the “self-splicing fitness (ln)” value (30 °C) is -0.641 ± 0.1 and the “self-splicing fitness (ln)” value (37 °C) is -0.862 ± 0.12. Take UAUGAGCAAUAUUACGACAU: the “self-splicing fitness (ln)” value was -3.523 ± 0.029 (30 °C) and -2.56 ± 0.042 (37 °C).

Turning to AACAAGCAAUAUUACGUUGU, the “self-splicing fitness (ln)” value (30 °C) was -2.17 ± 0.074 and the “self-splicing fitness (ln)” value (37 °C) was -2.39 ± 0.13.

Turning to AUUUAGCAAUAUUACGGCUA, the “self-splicing fitness (ln)” value (30 °C) is -0.795 ± 0.13 and the “self-splicing fitness (ln)” value (37 °C) came to 0.255 ± 0.12. Take CAACAGCAAUAUUACGCGCU: the “self-splicing fitness (ln)” value reads like this: (30 °C) -3.18 ± 0.23; (37 °C) -1.97 ± 0.19. The matching figures for GCUUAGCAAUAUUACGGUAU: -1.74 ± 0.074 and -1.15 ± 0.091. The matching figures for UUCGAGCAAUAUUACGCUGG: -0.924 ± 0.28 and -1.02 ± 0.42. In the case of AAAAAGCAAUAUUACGGCCU, the “self-splicing fitness (ln)” value by setting is: (30 °C) -0.199 ± 0.069; (37 °C) 0.253 ± 0.095. For CGUCAGCAAUAUUACGAUAG, the “self-splicing fitness (ln)” value runs as follows: (30 °C) -0.505 ± 0.054; (37 °C) -0.11 ± 0.074.
